Measured values: PMC7641746 (Nucleic Acids Research, 2020)

Experiments:
[1] = molecular target: MED1 (50–660) (human, UniProt Q15648 50-660); assay: HDX-MS
[2] = molecular target: VDR;RXRα ΔNTD;MED1 (50-660) (Homo sapiens;Homo sapiens;Homo sapiens, UniProt P11473;P19793;Q15648 1-427;130-462;50-660, ||); assay: SEC-MALLS
[3] = molecular target: VDR;RXRα ΔNTD (Homo sapiens;Homo sapiens, UniProt P11473;P19793 1-427;130-462, |); assay: ITC

Sequence of MED1 (50–660) (Q15648 50-660): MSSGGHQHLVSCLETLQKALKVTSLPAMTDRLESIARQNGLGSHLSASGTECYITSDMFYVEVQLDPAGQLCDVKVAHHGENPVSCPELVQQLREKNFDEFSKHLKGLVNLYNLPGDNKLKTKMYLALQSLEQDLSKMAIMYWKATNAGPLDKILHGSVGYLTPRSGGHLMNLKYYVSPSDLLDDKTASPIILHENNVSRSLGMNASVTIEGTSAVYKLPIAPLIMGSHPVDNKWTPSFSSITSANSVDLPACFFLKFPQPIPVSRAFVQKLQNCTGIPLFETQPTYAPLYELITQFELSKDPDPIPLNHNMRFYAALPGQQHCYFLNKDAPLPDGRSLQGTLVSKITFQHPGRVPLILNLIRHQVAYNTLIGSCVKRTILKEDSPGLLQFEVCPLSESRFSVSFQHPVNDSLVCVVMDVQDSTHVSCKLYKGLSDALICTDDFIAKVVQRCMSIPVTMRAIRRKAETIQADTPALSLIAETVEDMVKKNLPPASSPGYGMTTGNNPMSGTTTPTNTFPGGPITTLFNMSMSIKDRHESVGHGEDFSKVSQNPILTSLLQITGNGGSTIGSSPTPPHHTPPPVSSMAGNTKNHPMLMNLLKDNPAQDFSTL
Sequence of VDR;RXRα ΔNTD;MED1 (50-660) (Q15648 50-660, stated change not applied, one chain of several): as the sequence (Q15648 50-660) above

Binder	binding result [1]	binding result [2]	binding result [3]
full-length HsVDR (1–427) (receptor) MEAMAASTSLPDPGDFDRNVPRICGVCGDRATGFHFNAMTCEGCKGFFRRSMKRKALFTCPFNGDCRITKDNRRHCQACRLKRCVDIGMMKEFILTDEEVQRKREMILKRKEEEALKDSLRPKLSEEQQRIIAILLDAHHKTYDPTYSDFCQFRPPVRVNDGGGSHPSRPNSRHTPSFSGDSSSSCSDHCITSSDMMDSSSFSNLDLSEEDSDDPSVTLELSQLSMLPHLADLVSYSIQKVIGFAKMIPGFRDLTSEDQIVLLKSSAIEVIMLRSNESFTMDDMSWTCGNQDYKYRVSDVTKAGHSLELIEPLIKFQVGLKKLNLHEEEHVLLMAICIVSPDRPGVQDAALIEAIQDRLSNTLQTYIRCRHPPPGSHLLYAKMIQKLADLRSLNEEHSKQYRCLSFQPECSMKLTPLVLEVFGNEIS	binds		
HsRXRαΔNTD (130–462) (receptor) FTKHICAICGDRSSGKHYGVYSCEGCKGFFKRTVRKDLTYTCRDNKDCLIDKRQRNRCQYCRYQKCLAMGMKREAVQEERQRGKDRNENEVESTSSANEDMPVERILEAELAVEPKTETYVEANMGLNPSSPNDPVTNICQAADKQLFTLVEWAKRIPHFSELPLDDQVILLRAGWNELLIASFSHRSIAVKDGILLATGLHVHRNSAHSAGVGAIFDRVLTELVSKMRDMQMDKTELGCLRAIVLFNPDSKGLSNPAEVEALREKVYASLEAYCKHKYPEQPGRFAKLLLRLPALRSIGLKCLEHLFFFKLIGDTPIDTFLMEMLEAPHQMT	binds		
rat Nppa (rANF1) DR3 VDRE (dsDNA) DNA 1: AGAGGTCATGAAGGACATT DNA 2: AATGTCCTTCATGACCTCT		binds	binds
